Experimental data reported in US20130253037.

Assays:
[1] = biological target: 6-His-LIMK2 (recombinant, E. coli) (UniProt P53671)
[2] = biological target: 6-His-PHLDA1 (recombinant, E. coli) (UniProt Q8WV24)
6-His-PHLDA1 (recombinant, E. coli), sequence (Q8WV24 whole entry): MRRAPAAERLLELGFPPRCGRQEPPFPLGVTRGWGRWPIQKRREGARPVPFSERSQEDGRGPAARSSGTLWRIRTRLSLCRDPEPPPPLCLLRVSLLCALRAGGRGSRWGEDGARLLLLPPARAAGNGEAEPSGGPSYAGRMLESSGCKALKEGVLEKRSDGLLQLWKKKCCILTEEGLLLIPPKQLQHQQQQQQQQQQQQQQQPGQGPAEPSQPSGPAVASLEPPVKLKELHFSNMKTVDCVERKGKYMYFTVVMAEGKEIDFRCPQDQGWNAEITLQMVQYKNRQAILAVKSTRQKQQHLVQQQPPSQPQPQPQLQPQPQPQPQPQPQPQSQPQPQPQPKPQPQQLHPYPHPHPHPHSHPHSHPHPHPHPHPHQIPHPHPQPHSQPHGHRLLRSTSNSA

6-His-LIMK2 (recombinant, E. coli), sequence (P53671 whole entry, looked up): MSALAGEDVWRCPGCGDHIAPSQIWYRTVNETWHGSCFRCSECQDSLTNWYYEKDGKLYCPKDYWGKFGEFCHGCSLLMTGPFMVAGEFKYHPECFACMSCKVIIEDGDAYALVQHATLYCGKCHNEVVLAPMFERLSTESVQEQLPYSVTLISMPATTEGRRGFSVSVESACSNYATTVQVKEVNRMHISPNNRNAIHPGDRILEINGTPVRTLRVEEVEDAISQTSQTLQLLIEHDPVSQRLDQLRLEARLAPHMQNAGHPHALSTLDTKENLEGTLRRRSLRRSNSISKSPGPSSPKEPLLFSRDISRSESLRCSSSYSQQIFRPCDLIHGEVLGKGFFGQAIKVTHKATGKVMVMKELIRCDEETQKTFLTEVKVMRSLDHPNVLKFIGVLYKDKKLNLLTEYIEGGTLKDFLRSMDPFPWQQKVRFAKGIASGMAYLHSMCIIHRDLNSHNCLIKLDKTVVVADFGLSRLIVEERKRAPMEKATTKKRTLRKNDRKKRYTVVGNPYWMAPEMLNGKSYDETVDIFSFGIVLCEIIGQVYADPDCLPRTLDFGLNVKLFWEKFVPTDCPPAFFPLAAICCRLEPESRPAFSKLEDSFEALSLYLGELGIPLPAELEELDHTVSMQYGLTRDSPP

## 6-His-Aurora-A (recombinant, wild type, from Sf9 insect cells)
[1]
  LIMK2 kinase activity (cofilin phosphorylation) after pre-incubation with Aurora A: LIMK2 preincubated with Aurora A showed increased kinase activity (lane 2)
  in vitro kinase assay with recombinant Aurora A/TPX2 and 6-His-LIMK2 (phosphorylation of LIMK2): Aurora A directly phosphorylates LIMK2 (FIG. 5A, lane 2)
  in vitro phosphorylation of wild-type, S283A, T494A and T505A LIMK2 alleles by Aurora A/TPX2: Aurora A phosphorylates LIMK2 at all these sites (FIG. 8A)
[2]
  in vitro kinase assay with Aurora A/TPX2 and [γ-32P]ATP (phosphorylation of PHLDA1): Aurora A directly phosphorylated PHLDA1 (FIG. 1A, lane 2)
  in vitro phosphorylation of wild-type, Ser78A and Ser98A PHLDA1 alleles by Aurora A/TPX2: Aurora A was found to predominantly phosphorylate PHLDA1 at Ser98 (FIG. 2C)
6-His-cofilin
  in vitro kinase assay, cofilin phosphorylation with [32P] ATP: Aurora A does not phosphorylate cofilin (FIG. 6H, lanes 1 and 4)
